Measurements taken from patent US20150329642A1 (Genmab, published 2015).

Assays:
[1] = molecular target: T1, cMetECDHis (human, UniProt P08581 25-932, limits assumed, biotinylated in the cross-block ELISA of Example 17); experiment: BLI (Octet); antibody captured, cMetECDHis in solution
T1 construct: Expressed in HEK-293F cells; also called soluble cMetECDHis; biotinylated cMetECDHis
Experimental: Antibody binding to cMetECDHis was analyzed by means of Bio-Layer Interferometry (BLI) technology on the Octet System (Fortebio, Menlo Park, USA). Anti-human IgG coated biosensors (Fc-specific) were used to capture anti-c-Met antibodies according to the procedure recommended by the manufacturer. cMetECDHis derived from HEK293 cells was loaded on top of the immobilized anti-c-Met antibodies by placing the loaded biosensor into a well containing 10 μg/mL cMetECDHis diluted in 10 times diluted kinetics buffer (Fortebio). The difference in reflection of light (AA, nm) of the biosensor surface due to the binding of cMetECDHis was measured in real time during approximately 10 minutes and was used by the Octet software (V4.0, Fortebio) to calculate the association constant (kₐ [1/M×s]). Next, the loaded biosensor was placed into a well containing only kinetics buffer (10 times diluted in PBS) to determine the dissociation constant (kd [1/s]). Kinetics analysis was performed to determine the affinity (KD [M]) using model 1:1 (langmuir). As a positive control, 0.2 μg/mL 5D5 IgG1 produced in HEK293 cells, was used.

[2] = molecular target: T1, cMetECDHis; experiment: cross-block ELISA; competitor 098
Experimental: (§1) First, the optimal coating concentrations of the tested anti-c-Met antibodies and the optimal cMetECDHis concentration were determined. Therefore, ELISA wells were coated overnight at 4° C. with anti-c-Met HuMabs serially diluted in PBS (8 μg/mL in 2-fold dilutions). Next, the ELISA wells were washed with PBST (PBS supplemented with 0.05% Tween-20 [Sigma-Aldrich, Zwijndrecht, The Netherlands]) and blocked for one hour at room temperature (RT) with PBSTC (PBST supplemented 2% [v/v] chicken serum [Gibco, Paisley, Scotland]). Subsequently, the ELISA wells were washed with PBST and incubated for one hour at RT with biotinylated cMetECDHis serially diluted in PBSTC (1 μg/mL in 2-fold dilutions). Unbound biotinylated cMetECDHis was washed away with PBST, and bound biotinylated cMetECDHis was incubated for one hour at RT with 0.1 μg/mL Streptavidin-poly-HRP (Sanquin, Amsterdam, The Netherlands) diluted in PBST.
(§2) ELISA wells were coated with anti-c-Met antibody at a sub-optimal dose as described above. After blocking of the ELISA wells, they were incubated with the predetermined concentration of biotinylated cMetECDHis in the presence of an excess of anti-c-Met antibody. The reaction was developed as described above. Residual binding was expressed as a percentage relative to the binding observed in the absence of competitor antibody.

[3] = molecular target: T1, cMetECDHis; experiment: cross-block ELISA; competitor 064
Experimental: as §1, §2

[4] = molecular target: T1, cMetECDHis; experiment: cross-block ELISA; competitor 008
Experimental: as §1, §2

[5] = molecular target: T1, cMetECDHis; experiment: cross-block ELISA; competitor 006
Experimental: as §1, §2

[6] = molecular target: T1, cMetECDHis; experiment: cross-block ELISA; competitor 022
Experimental: as §1, §2

[7] = molecular target: T1, cMetECDHis; experiment: cross-block ELISA; competitor 068
Experimental: as §1, §2

[8] = molecular target: T1, cMetECDHis; experiment: cross-block ELISA; competitor G11-HZ
Experimental: as §1, §2

[9] = molecular target: T1, cMetECDHis; experiment: cross-block ELISA; competitor 5D5
Experimental: as §1, §2

[10] = molecular target: T1, cMetECDHis; experiment: cross-block ELISA; competitor 181
Experimental: as §1, §2

[11] = molecular target: T1, cMetECDHis; experiment: cross-block ELISA; competitor 045
Experimental: as §1, §2

[12] = molecular target: T1, cMetECDHis; experiment: cross-block ELISA; competitor 035
Experimental: as §1, §2

[13] = molecular target: T1, cMetECDHis; experiment: cross-block ELISA; competitor 069
Experimental: as §1, §2

[14] = molecular target: T1, cMetECDHis; experiment: cross-block ELISA; competitor 062
Experimental: as §1, §2

[15] = molecular target: T1, cMetECDHis; experiment: cross-block ELISA; competitor 005
Experimental: as §1, §2

[16] = molecular target: T1, cMetECDHis; experiment: cross-block ELISA; competitor 101
Experimental: as §1, §2

[17] = molecular target: T1, cMetECDHis; experiment: cross-block ELISA; competitor 058
Experimental: as §1, §2

Binder | Kd [1] | koff [1] | kon [1] | residual binding, % of no competitor [2] | residual binding, % of no competitor [3] | residual binding, % of no competitor [4] | residual binding, % of no competitor [5] | residual binding, % of no competitor [6] | residual binding, % of no competitor [7] | residual binding, % of no competitor [8] | residual binding, % of no competitor [9] | residual binding, % of no competitor [10] | residual binding, % of no competitor [11] | residual binding, % of no competitor [12] | residual binding, % of no competitor [13] | residual binding, % of no competitor [14] | residual binding, % of no competitor [15] | residual binding, % of no competitor [16] | residual binding, % of no competitor [17]
anti-c-Met HuMab 005 (IgG1) (antibody, V domains shown, also called TH1016-005; PC1016-005) VH: QVQLVQSGAEVKKPGSSVKVSCKASGGTFSSYGFGWVRQAPGQGLEWMGRISPILGIANYAQMFQGRVTITADKSTSTAYMELSSLRSEDTAVYYCARDVGYDWPDTFDIWGQGTMVIVSS VL: DIQMTQSPSSLSASVGDRVTITCRASQGISSWLAWYQQKPEKAPKSLIYAASSLQSGVPSRFSGGGSGTDFTLTISSLQPEDFATYYCQQYNSFPPTFGQGTKVEIK | 7.92 nM | 0.00252 s⁻¹ | 318000 M⁻¹ s⁻¹ | 110% | 118% | 81.9% | 18.2% | 4.9% | 129% | 76.8% | 2.9% | 131% | 117% | 84.9% | 124% | 118% | 7.7% | 103% | 3.6%
IgG1-024 (antibody, V domains shown, also called TH1016-024; PC1016-024) VH: EVQLLESGGGLVQPGGSLRLSCVASGFTFSSYAMSWVRQAPGKGLEWVSAISGSSGGSTYYVDSVKGRFTISRANSKNTLYLQMNSLRAEDTAVYYCAKDLDRGWMGYFGYWGQGTLVTVSS VL: DIQMTQSPSSVSASVGDRVTITCRASQGISSWLAWYQHKPGKAPKLLIYAASSLQSGVPSRFSGSGSGTDFTLTISSLQPEDFATYYCQQANSFPTFGQGTRLEIK | 1.57 nM | 0.000228 s⁻¹ | 145000 M⁻¹ s⁻¹ | 10.4% | 2.3% | 104% | 101% | 100% | 12% | 98.2% | 95.5% | 7.1% | 98.1% | 108% | 2.9% | 2.3% | 98.4% | 4.8% | 103%

More lines, in order of falling Kd [1], values ahead:

Kd [1] | koff [1] | kon [1] | residual binding, % of no competitor [2] | residual binding, % of no competitor [3] | residual binding, % of no competitor [4] | residual binding, % of no competitor [5] | residual binding, % of no competitor [6] | residual binding, % of no competitor [7] | residual binding, % of no competitor [8] | residual binding, % of no competitor [9] | residual binding, % of no competitor [10] | residual binding, % of no competitor [11] | residual binding, % of no competitor [12] | residual binding, % of no competitor [13] | residual binding, % of no competitor [14] | residual binding, % of no competitor [15] | residual binding, % of no competitor [16] | residual binding, % of no competitor [17] | Binder
9.89 nM | 0.0042 s⁻¹ | 425000 M⁻¹ s⁻¹ | 111% | 122% | 58.8% | 14.6% | 4.6% | 129% | 54% | 3.1% | 124% | 114% | 67.5% | 124% | 119% | 11.3% | 106% | 3.6% | anti-c-Met HuMab 006 (IgG1) (antibody, V domains shown, also called TH1016-006; PC1016-006) VH: QVQLVQSGAEVKKPGSSVKVSCKASGGTFSSFGIGWVRQAPGQGLEWMGRIFPILGTANYAQMFQGRVTITADKSTSTAYMELTSLRSEDTAVYYCARDVGYDSADAFDIWGQGTMVTVSS VL: DIQMTQSPSSLSASVGDRVTITCRASQGISSWLAWYQQKPEKAPKSLIYAASSLQSGVPSRFSGSGSGTDFTLTISSLQPEDFATYYCQQYNSYPPTFGQGTKVEIK
5.12 nM | 0.00157 s⁻¹ | 308000 M⁻¹ s⁻¹ | 107% | 107% | 5.4% | 47.3% | 82.1% | 112% | 2.7% | 32.4% | 111% | 100% | 32.9% | 104% | 100% | 63.9% | 101% | 40.8% | anti-c-Met HuMab 008 (IgG1) (antibody, V domains shown, also called TH1016-008; PC1016-008) VH: EVQLVQSGAEVKKPGESLKISCKGSGYSFTSYWIGWVRQMPGKGLEWMGIIYPGDSETRYSPSFQGQVTISADKSISTAYLQWSSLKASDTAMYYCARQEITGEFDYWGQGTLVTVSS VL: AIQLTQSPSSLSASVGDRVTITCRASQGISSALAWYQQKPGKAPKLLIYDASSLESGVPSRFSGSGSGTDFTLTISSLQPEDFATYYCQQFNSYPRTFGQGTKVEIK
1.06 nM | 0.000251 s⁻¹ | 236000 M⁻¹ s⁻¹ | 105% | 102% | 94.1% | 60.5% | 3.8% | 104% | 85.9% | 4.2% | 107% | 95.7% | 92.4% | 99.6% | 99.4% | 37.9% | 104% | 5.8% | IgG1-1016-022 (antibody, V domains shown, also called TH1016-022; PC1016-022) VH: QVQLVESGGGVVQPGRSLRLSCAASGFTFSSYAMHWVRQAPGKGLEWVAVISYDGSNKYYADSVKGRFTISRDNSKNTLYLQMNSLRAEDTAVYYCARELLWFGELWGYFDLWGRGTLVTVSS VL: DIQMTQSPSSVSASVGDRVTITCRASQGISSWLAWYQHKPGKAPKLLIYAASSLQSGVPSRFSGSGSGTDFTLTISSLQPEDFATYYCQEASSFTWTFGQGTKVEIK
